From article PMC3212559, “Large-Scale Protein-Protein Interaction Analysis in Arabidopsis Mesophyll Protoplasts by Split Firefly Luciferase Complementation” (PLoS ONE, 2011)

Key:
Assay in all cases: split reporter (BiFC, NanoBiT); SFLC in living Arabidopsis mesophyll protoplasts: Aux/IAA-FLucN or MYB30-FLucN co-expressed with ARFCTD-FLucC or Aux/IAA-FLucC for 6 hr; 10 µg of each construct, 2×10^4 cells, 96-well plate, D-luciferin; relative activity standardised against ARF5CTD-FLucC + IAA28-FLucN
Settings in all cases: partners not purified
IAA13-FLucC = target: T1, IAA13-FLucC (Arabidopsis, UniProt Q38831 1-247)
T1 construct: Arabidopsis Aux/IAA protein IAA13; also called Aux/IAA-FLucC; source: Arabidopsis mesophyll protoplasts, transfected, in living cells; not shown: FLucC (firefly luciferase aa 394-550)
T1 sequence (looked up): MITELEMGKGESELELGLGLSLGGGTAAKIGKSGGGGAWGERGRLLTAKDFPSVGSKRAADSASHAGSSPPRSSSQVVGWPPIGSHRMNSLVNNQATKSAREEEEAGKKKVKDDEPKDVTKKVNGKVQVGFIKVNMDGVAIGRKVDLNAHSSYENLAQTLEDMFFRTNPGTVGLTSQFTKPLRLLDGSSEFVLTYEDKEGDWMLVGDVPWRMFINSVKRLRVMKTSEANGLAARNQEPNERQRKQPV

IAA7-FLucC = target: T2, IAA7-FLucC (Arabidopsis, UniProt Q38825 1-243)
T2 construct: Arabidopsis Aux/IAA protein IAA7; also called Aux/IAA-FLucC; source: Arabidopsis mesophyll protoplasts, transfected, in living cells; not shown: FLucC (firefly luciferase aa 394-550)
T2 sequence (looked up): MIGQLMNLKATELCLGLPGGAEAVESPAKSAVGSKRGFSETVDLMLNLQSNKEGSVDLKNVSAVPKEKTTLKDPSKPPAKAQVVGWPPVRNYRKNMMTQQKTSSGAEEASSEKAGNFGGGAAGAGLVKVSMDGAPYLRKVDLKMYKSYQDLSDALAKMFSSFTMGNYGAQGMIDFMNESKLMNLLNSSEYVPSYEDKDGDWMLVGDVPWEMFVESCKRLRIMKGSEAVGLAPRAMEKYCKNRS

[1] = target: T3, ARF9 C-terminal domain (CTD)-FLucC (Arabidopsis, UniProt Q9XED8 523-638)
T3 construct: Arabidopsis auxin response factor 9, C-terminal dimerization domain (CTD); In the ARF-ARF tests the same CTD stood both as ARFCTD-FLucC and as ARFCTD-FLucN; one molecule for both; also called ARF9CTD-FLucC; ARFCTD-FLucC; source: Arabidopsis mesophyll protoplasts, transfected, in living cells (SFLC) and in lysate (co-IP); not shown: FLucC (firefly luciferase aa 394-550)
T3 sequence (looked up): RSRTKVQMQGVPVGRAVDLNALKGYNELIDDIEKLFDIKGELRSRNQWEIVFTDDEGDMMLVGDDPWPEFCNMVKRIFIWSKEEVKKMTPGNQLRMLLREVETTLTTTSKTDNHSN

Measured: relative luciferase activity (standardised against ARF5CTD-FLucC + IAA28-FLucN)

B1: MYB30-FLucN (natural protein, UniProt Q9SCU7 1-323, looked up)
chain: MVRPPCCDKGGVKKGPWTPEEDIILVTYIQEHGPGNWRAVPTNTGLLRCSKSCRLRWTNYLRPGIKRGNFTEHEEKMIVHLQALLGNRWAAIASYLPQRTDNDIKNYWNTHLKKKLNKVNQDSHQELDRSSLSSSPSSSSANSNSNISRGQWERRLQTDIHLAKKALSEALSPAVAPIITSTVTTTSSSAESRRSTSSASGFLRTQETSTTYASSTENIAKLLKGWVKNSPKTQNSADQIASTEVKEVIKSDDGKECAGAFQSFSEFDHSYQQAGVSPDHETKPDITGCCSNQSQWSLFEKWLFEDSGGQIGDILLDENTNFF
notes: transcription factor MYB30, the unrelated protein used as negative control; source: Arabidopsis mesophyll protoplasts, transfected, in living cells; not shown: FLucN (firefly luciferase aa 1-398)
< 0.1: all assays above
